In patent publication US20130224191A1, “NOTUM PROTEIN MODULATORS AND METHODS OF USE” (priority 2010, published 2013):
Entries after “also recorded” stand apart in the source; their conditions may differ.

Key:
Notum [1] = target: T1, Notum (Homo sapiens, UniProt Q6P988); test: Neutralization of human Notum activity in 293.TCF luciferase assay; format: cell-based; parameters: 8x-His; Strep-tag II; IgK signal peptide/leader of the pSEC-CAG vector (N); made in house; host or cells: HEK293T (adherent) / suspension 293 cells
T1 sequence (Q6P988 20-496): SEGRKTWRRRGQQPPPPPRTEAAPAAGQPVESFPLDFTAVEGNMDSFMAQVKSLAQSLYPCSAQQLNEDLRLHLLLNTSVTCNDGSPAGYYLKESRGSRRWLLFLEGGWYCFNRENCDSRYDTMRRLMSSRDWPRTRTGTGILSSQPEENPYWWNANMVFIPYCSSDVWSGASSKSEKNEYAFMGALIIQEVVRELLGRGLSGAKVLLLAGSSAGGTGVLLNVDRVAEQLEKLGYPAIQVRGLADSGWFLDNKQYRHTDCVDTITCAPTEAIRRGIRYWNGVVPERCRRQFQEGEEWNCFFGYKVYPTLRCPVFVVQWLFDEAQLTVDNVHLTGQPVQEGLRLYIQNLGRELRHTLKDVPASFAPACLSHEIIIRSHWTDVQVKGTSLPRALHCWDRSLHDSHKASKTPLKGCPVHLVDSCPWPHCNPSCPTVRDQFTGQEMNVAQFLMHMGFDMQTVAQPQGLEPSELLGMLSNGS
Procedure: Using the 293.TCF cells described above, supernatants from hybridomas and/or purified antibodies shown to bind Notum by ELISA assays (Example 9) were screened for their ability to neutralize hNotum-His or hNotum-Fc activity as follows. 2.5×10^4 293.TCF cells were plated per well of a 96-well tissue culture plate in 50 μL of serum-free medium. After 23 hours of serum starvation, 10 μL of DMEM+0.2% FBS containing various Notum proteins at various concentrations were mixed with either 15 μL of supernatant from the hybridoma, or 15 μL of purified antibody at various concentrations, and allowed to incubate for 5 minutes at room temperature. The 25 μL antibody:Notum mixture was then added to the 293.TCF cells. After 1 hour, 25 μL of Wnt3A or control L-cell CM were added to each well. Eighteen hours after addition of CM, 100 μL of One-Glo solution (ProMega Corp.) was added to each well. The contents of each well were then mixed thoroughly to lyse the cells, 100 μL of lysate transferred to black 96-well plates, and the luminescence read after 5 minutes. […]

Notum [2] = target: T1, Notum; test: Bio-layer interferometry on ForteBIO RED; format: binding; conditions: 250, 125 and 62.5 nM antigen
Procedure: Three methods were used to characterize the affinity of humanized SC2.D2.2 relative to its analogous mAb with the murine variable region. First, binding signal was measured for a fixed amount of antibody probed against serial dilutions of antigen in an ELISA format. […] Second, the affinity of murine SC2.D2.2 was measured by Biacore using surface plasmon resonance (SPR) to provide the results set forth in FIG. 32A. Based on a concentration series of 12.5, 6.25, 3.125, 1.5625, 0.78125 nM and using a 1:1 Langmuir binding model, the Kd of the antibody binding to antigen was estimated to be less than 0.1 nM. Long off-rates for this interaction made accurate determination of affinity through kinetics difficult. The murine antibody was then directly compared to the humanized derivative using bio-layer interferometry analysis on a ForteBIO RED (ForteBIO, Inc.) with a concentration series of 250, 125, and 62.5 nM antigen.

[3] = target: T2, human Notum (recombinant or endogenous; construct not specified at the place of use) (human, UniProt Q6P988 20-496); test: SPR (Biacore), antigen at 12.5 to 0.78125 nM, 1:1 Langmuir binding model
T2 construct: also called hNotum; human Notum protein
T2 sequence: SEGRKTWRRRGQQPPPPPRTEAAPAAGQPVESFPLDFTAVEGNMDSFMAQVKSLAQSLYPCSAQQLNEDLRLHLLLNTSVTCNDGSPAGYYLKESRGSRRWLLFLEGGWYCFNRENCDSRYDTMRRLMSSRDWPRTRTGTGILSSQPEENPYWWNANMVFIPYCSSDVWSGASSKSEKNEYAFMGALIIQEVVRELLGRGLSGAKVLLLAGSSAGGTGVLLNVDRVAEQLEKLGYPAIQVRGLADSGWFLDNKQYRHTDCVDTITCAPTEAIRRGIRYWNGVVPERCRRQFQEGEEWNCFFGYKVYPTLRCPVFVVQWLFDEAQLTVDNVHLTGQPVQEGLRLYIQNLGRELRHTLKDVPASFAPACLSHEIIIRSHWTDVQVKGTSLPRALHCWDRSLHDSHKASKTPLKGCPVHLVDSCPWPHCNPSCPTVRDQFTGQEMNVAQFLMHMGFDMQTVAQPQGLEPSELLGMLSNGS
Procedure: Binding characteristics for antibodies were assessed using antibody capture Biacore technology. Disassociation constant values Kd (koff/kₒₙ) were determined for selected antibodies. A Biacore 3000 (GE Healthcare) biosensor was used for surface plasmon resonance (SPR) kinetic measurements. Using purified antibody quantitative koff constants were derived through capture the antibody on the sensor surface. Anti-mouse IgG was immobilized on the CM5 surface of sensor chip using standard amine coupling chemistry. Each mAb was captured onto an anti-IgG surface before the antigen was injected over the immobilized antibody allowing the antibody-antigen interaction to be analyzed.
Three methods were used to characterize the affinity of humanized SC2.D2.2 relative to its analogous mAb with the murine variable region. First, binding signal was measured for a fixed amount of antibody probed against serial dilutions of antigen in an ELISA format. Measured signal levels were substantially similar (data not shown). Second, the affinity of murine SC2.D2.2 was measured by Biacore using surface plasmon resonance (SPR) to provide the results set forth in FIG. 32A. […] Long off-rates for this interaction made accurate determination of affinity through kinetics difficult. […]

B1: SC2.D2.2 (antibody, V domains shown)
VH: DVQLVESGGGLVQPGGSRKISCAASGFTFSSYGMHWVRQAPEKGLEWVAYISSSTVTTYYADTVKGRFTISRDNANNTLFLQMTSLRSEDTAMYYCSRQNWDGGYFDVWGAGTTVTVSS
VL: DIVLTQSLASLAVSLGQRATISCRASKSVSSSGYSYMHWYQQKPGQPPKLLIYLASNLESGVPARFSGSGSGTDFTLNIHPVEEEDAATYYCQHSRALPLTFGAGTKLELKR
notes: also called murine SC2.D2.2
For B1, the “inhibition of human Notum activity” value (Notum [1]) was “acts in a concentration dependent manner to antagonize the effects of added hNotum-His; also recorded: can inhibit the activity of human Notum in a dose dependent fashion; also recorded: specifically inhibit the human version of Notum”, the “affinity, binding curves” value (Notum [2]) was “excellent affinity” and the Kd [3] was less than 0.1 nM.
